Experimental data taken from the DeepSol protein solubility set.

Assay: soluble on expression in E. coli; label from the status in PepcDB or PDB records

Soluble on expression in E. coli, soluble:
MSLQGRRRKSLVFFPFFKINDKGASAMEEMVVVTPEKLEKLMKQKLEAAGLHSEHAEEVARHLTFADASGIHSHGAVRMDYYAERIAKGGITIDPELSFEKTGPSTAIFHGDNGVGQFVCNEALAAAVDLAKESGVAYVGVSQTSHSGTLSYYVKKAAEQGMVALSMCQSDPMVVPFGGTSNYFGTNPIAFAAPRAGHEPVVFDMATTVQAWGKILDARSRDVEIPDTWAVDEKGQPTTDPYEVRGLLPISGPKGYGLMMMVDVLAGSLLGLPFGKHVSSMYADLTEKRNLGQMFLVIDPSRFTDSERFKENINQMVEELHCVPTAEGFQQVYYPGEIGQLNYQKAMSEGIEIPQSIYDYLVSEIVHYDKYGGQGAFAKEGGSHHHHHH
MSLQKITVPTWAEINLDNLRFNLNNIKNLLEEDIKICGVIKADAYGHGAVEVAKLLEKEKVDYLAVARTAEGIELRQNGITLPILNLGYTPDEAFEDSIKNKITMTVYSLETAQKINEIAKSLGEKACVHVKIDSGMTRIGFQPNEESVQEIIELNKLEYIDLEGMFTHFATADEVSKEYTYKQANNYKFMSDKLDEAGVKIAIKHVSNSAAIMDCPDLRLNMVRAGIILYGHYPSDDVFKDRLELRPAMKLKSKIGHIKQVEPGVGISYGLKYTTTGKETIATVPIGYADGFTRIQKNPKVLIKGEVFDVVGRICMDQIMVRIDKDIDIKVGDEVILFGEGEVTAERIAKDLGTINYEVLCMISRRVDRVYMENNELVQINSYLLKEGHHHHHH
MSLQKKAMIIYNPAAGKNKFRKLLPDAEKILTEADFEVTLVPSTPAPKSTTFIAKQAAEAGFDVVIAAGGDGTVNEVVNGLMQVDTPPKLGVLPVGTTNDYARALNFAKNPLEALRIIAKQETIRVDIGKANETEFFINNAAGGKITEITYAVKESMKSKWGRLAYLFSGLTVLPKLSPVYVEIAYNDKIFKGEILLFFVNKSNSVGGMETLCPPAELNSGMFELLILKKVSPKTLFQLFASIKKGTHLSSPHVIHARTNKVTINSEADLNVSYDGVYGGKAPYTLEVIPEALEVFADTNRISSRLRGEGHHHHHH
MSLQLLAPGANTALANAHCSWNLESGTSSVFGEYAAVALLAVNEKRQPMGDPALLHQEQSWMEWSGGPQDVGCTLKLDRLPAGSDRVLLMVYVYAAMGPIRDFASLRLKVDANIEHRLDLRDNGEAAIIIGEFYKRNDQWKFRALSEGSAYGLSAFGRKIGLEVDDRHPRRPSGGSGGPAGGPRHESATGTAFVVGPAHVMTCAHVIEDMGVFYINSLEGRYKAEAVVIDRRNDIALLRVQGAPPLSAVTFREGQGCEPGDTVAVLGYPLASISGGGLQVTQGGISGLFGLHNDASLFQFTAPIQPGSSGSPLFDNGGAVIGMVTSTVPDGQNMNFAVKSALLMSFLQACRIDAPHARAERSYTTTEISRTFQSSLWLVEASREGHHHHHH
MSLQRLLQHSSNGNLADFCAGPAYSSYSTLTGSLTMDDNRRIQMLADTVATLPRGRKQLALTRSSSLSDFSWSQRKLVTVEKQDNETFGFEIQSYRPQNQNACSSEMFTLICKIQEDSPAHCAGLQAGDVLANINGVSTEGFTYKQVVDLIRSSGNLLTIETLNGTMILKRTELEAKLQVLKQTLKQKWVEYRSLQLQEHRLLHGDAANCPSLENMDLDELSLFGPLPGPGPALVDRNRLSSESSCKSWLSSMTMDSEDGYQTCVSEDSSRGAFSRQTSTDDECFIPKEGDDFLRRSSSRRNRSISNTSSGSMSPLWEGNLSSMFGTLPRKSRKGSVRKQLLKFIPGLHRAVEEEESRF
MSLQTIKIGLPVPLSGPYGAEAQDQVRNAELAVKQFNDAGGLDGRKAQLLVRDDRLNPAEAATRALELIEKDGVNFIVGGLSAATQLSINNVTRQRKKLYISISQSDAINEAADASPYTFHEALNPHMTTQAVGKYVFKPGMRVAFLTADYAYGHEMTRGFTEVARQQGAEVVGEVKHPLGASDYSAFLPRLKALNPDVLVFNNFGADNRISIKQAADFGMKRNIRFVTPILTYTARVSGGAATYQDVVGGTQYYWAIQDSVPSAKAFNAAFQAENNGRFPSDYGAMAYSAVKSLLLAVRDAGSTDTDEVAAALRKLKYDTYKGAQYYRGCDQQSVQSVLVIQSVGKDNAHPDEVFKLLHTEAPSEGHHHHHH
